Measured values reported in paper PMC6915604.

Target: β-glucosidase with N-terminal K-coil and N-terminal His-tag (KG)

retention rate of relative enzyme activity of the KG-HE complex recovered in a magnetic field, after usage cycles 1 to 3 (93.8%, 82.5%, 56.3%); pH 4.5, 45 °C, 20 min: 93.8%
Substance: human H chain ferritin with C-terminal E-coil, without the sequence of a His-tag (HE)
